Assay results: patent US20180118814A1 (IGM BIOSCIENCES, published 2018)

T1: HBsAg (Prospec HBS-872) (hepatitis B virus)
T1 chain: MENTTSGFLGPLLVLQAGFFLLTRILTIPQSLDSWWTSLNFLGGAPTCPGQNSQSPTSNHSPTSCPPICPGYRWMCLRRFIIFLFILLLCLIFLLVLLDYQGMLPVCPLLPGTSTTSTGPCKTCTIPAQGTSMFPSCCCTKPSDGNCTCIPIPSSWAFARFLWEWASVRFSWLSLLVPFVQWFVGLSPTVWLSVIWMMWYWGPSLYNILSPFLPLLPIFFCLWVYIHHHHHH


Target: T1, HBsAg (Prospec HBS-872)
Assay: ELISA, plate coated with HBsAg (Prospec HBS-872), anti-human lambda-HRP detection, weight concentrations

Row | Binder | EC50
1 | HBV23MJ (antibody, Human IgM with human J-chain; also called HBV23 anti-HBsAg IgM+human J-chain) heavy: EVQVLESGGGLVQPGGSLRLSCAASGFRFSSYAMSWVRQAPGKGLEWVSGISGTGENTYYADSVKGRFTISRDNSKNTLYVQMNSLRAEDTAVYYCAKDAILGSGHPWYFHVWGRGTLVTVSSGSASAPTLFPLVSCENSPSDTSSVAVGCLAQDFLPDSITFSWKYKNNSDISSTRGFPSVLRGGKYAATSQVLLPSKDVMQGTDEHVVCKVQHPNGNKEKNVPLPVIAELPPKVSVFVPPRDGFFGNPRKSKLICQATGFSPRQIQVSWLREGKQVGSGVTTDQVQAEAKESGPTTYKVTSTLTIKESDWLSQSMFTCRVDHRGLTFQQNASSMCVPDQDTAIRVFAIPPSFASIFLTKSTKLTCLVTDLTTYDSVTISWTRQNGEAVKTHTNISESHPNATFSAVGEASICEDDWNSGERFTCTVTHTDLPSPLKQTISRPKGVALHRPDVYLLPPAREQLNLRESATITCLVTGFSPADVFVQWMQRGQPLSPEKYVTSAPMPEPQAPGRYFAHSILTVSEEEWNTGETYTCVVAHEALPNRVTERTVDKSTGKPTLYNVSLVMSDTAGTCY light: SYVLTQPPSVSVAPGQTARMTCGGNNIGSESVHWFQQKPGQAPVLVVYDDSDRPSGIPERFSGSNSGNTATLTISRVEAGDEADYYCQVWDSSSDHAVFGGGTQLTVLGQPKAAPSVTLFPPSSEELQANKATLVCLISDFYPGAVTVAWKADSSPVKAGVETTTPSKQSNNKYAASSYLSLTPEQWKSHRSYSCQVTHEGSTVEKTVAPTECS not shown | 0.064 µg/mL
2 | HBV23G (antibody, human IgG1, lambda, V domains shown, also called IgG counterpart (HBV23G); human IgG antibody provided in Cerino et al. (2015)) VH: EVQVLESGGGLVQPGGSLRLSCAASGFRFSSYAMSWVRQAPGKGLEWVSGISGTGENTYYADSVKGRFTISRDNSKNTLYVQMNSLRAEDTAVYYCAKDAILGSGHPWYFHVWGRGTLVTVSS VL: SYVLTQPPSVSVAPGQTARMTCGGNNIGSESVHWFQQKPGQAPVLVVYDDSDRPSGIPERFSGSNSGNTATLTISRVEAGDEADYYCQVWDSSSDHAVFGGGTQLTVLG | 0.03 µg/mL
